Source: PMC3310976 (Chromosoma, 2011)

Key:
[1] = target: T1, full-length Drosophila histone H1 fusion protein with a maltose binding protein-tag (Drosophila, UniProt P02255 1-256); assay: far-Western, overlay or dot blot
T1 sequence (looked up): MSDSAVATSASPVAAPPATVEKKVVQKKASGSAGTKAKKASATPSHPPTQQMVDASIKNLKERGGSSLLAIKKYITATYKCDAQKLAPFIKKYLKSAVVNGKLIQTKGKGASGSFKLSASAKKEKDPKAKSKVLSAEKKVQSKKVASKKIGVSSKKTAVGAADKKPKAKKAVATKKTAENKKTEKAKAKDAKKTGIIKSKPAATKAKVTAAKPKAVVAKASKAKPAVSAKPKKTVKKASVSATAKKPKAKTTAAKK

[2] = target: T2, His-tagged (6x) Drosophila histone H1 fusion protein (Drosophila, UniProt P02255 1-256); assay: pull-down
T2 sequence (looked up): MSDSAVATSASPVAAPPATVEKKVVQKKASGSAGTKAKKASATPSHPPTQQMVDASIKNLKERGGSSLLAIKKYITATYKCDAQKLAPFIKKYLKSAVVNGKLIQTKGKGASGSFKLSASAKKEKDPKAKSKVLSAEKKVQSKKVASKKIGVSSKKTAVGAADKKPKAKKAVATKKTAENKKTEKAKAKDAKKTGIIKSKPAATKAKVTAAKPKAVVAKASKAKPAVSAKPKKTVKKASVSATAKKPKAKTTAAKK

- binding result [1]: binds
- binding result [2]: binds
B1: GST-tagged Chromator chromodomain (219-277) (domain or fragment, Drosophila, UniProt Q86BS3 219-277, looked up)
chain: TEEPVEKIVAKRFNPRRKTHEYLVKWVDRSHHENTWEVMANLERVPYFLQMFEKQLARQ
